Common to all, as to assay: two-hybrid library CCNG1;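 note: natural log of median RNA to DNA barcode read ratio; higher means stronger binding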
One test has as its target T1, O7-bS.
T1 chain: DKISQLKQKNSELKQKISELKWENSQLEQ

In the next test the target is T2, O6-bS.
T2 chain: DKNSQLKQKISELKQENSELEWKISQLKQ

The next test addresses T3, O8-bS.
T3 chain: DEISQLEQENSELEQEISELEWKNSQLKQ

In another test the target is T4, O9-bS.
T4 chain: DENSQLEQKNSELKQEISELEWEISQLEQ

The target in another test is T5, O8.
T5 chain: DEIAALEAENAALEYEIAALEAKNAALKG

The next test has as its target T6, O7.
T6 chain: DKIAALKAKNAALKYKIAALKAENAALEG

A further test has as its target T7, O9.
T7 chain: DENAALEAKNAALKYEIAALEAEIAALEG

A further test has as its target T8, 4H3041-bA.
T8 chain: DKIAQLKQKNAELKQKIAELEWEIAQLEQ

The target in the next test is T9, 4H3381-bA.
T9 chain: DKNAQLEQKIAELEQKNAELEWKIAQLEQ

The target of another test is T10, 4H349-bA.
T10 chain: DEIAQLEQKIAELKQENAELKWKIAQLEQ

The target of a further test is T11, 4H796-bA.
T11 chain: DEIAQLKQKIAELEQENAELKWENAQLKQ

In the next test the target is T12, 4H949-bA.
T12 chain: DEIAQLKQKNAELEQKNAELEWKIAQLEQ

The target in a further test is T13, 4H56-bA.
T13 chain: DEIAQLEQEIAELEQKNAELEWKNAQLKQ

The next test addresses T14, 4H3297-bA.
T14 chain: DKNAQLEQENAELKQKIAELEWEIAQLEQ

The next test deals with T15, 4H932-bA.
T15 chain: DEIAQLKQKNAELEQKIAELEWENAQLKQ

A further test has as its target T16, 4H3364-bA.
T16 chain: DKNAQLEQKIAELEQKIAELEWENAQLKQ

For another test, the target named is T17, 4H730-bA.
T17 chain: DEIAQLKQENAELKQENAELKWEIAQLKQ

For the molecule DKNSQLKQKISELKQENSELEWKISQLKQ [O6-bS], the interaction score with O7-bS is -0.489; with O6-bS, -1.84; in the test with O8-bS it was -1.78; with O9-bS it was -0.588.

As for DKIAALKAKNAALKYKIAALKAENAALEG [O7], the figures for the interaction score with O8, with O7 and with O9 were 1.54, -2.89 and -2.46, respectively.

For DKIAQLKQKNAELKQKIAELEWEIAQLEQ [4H3041-bA], the interaction score is 0.985 with 4H3041-bA; -1.17 in the test with 4H3381-bA; -1.44 in the test with 4H349-bA; -1.16 with 4H796-bA; -1.15 with 4H949-bA; 0.805 with 4H56-bA. Besides, the interaction score in the test with 4H3297-bA is -0.21; with 4H932-bA it was -0.693; in the test with 4H3364-bA it was -1; in the test with 4H730-bA it was -1.65.

For the origin of these results see PMC10397247.
